According to article PMC4945878:

Experiments:
[1] = target: Claspin #25 (N-terminal polypeptide) (human, UniProt Q9HAW4 1-896); test: EMSA; plus #13 DE/A (aa897-1209) 1.5 or 3 pmol, no significant inhibition; 10 mM Tris-HCl pH 7.5, 40 ug/ml BSA, 1 mM DTT, EDTA (50 mM as printed for EMSA; 0.5 mM for filter binding), 20 mM K-glutamate, 8% glycerol, 30 C, 1 h
[2] = target: Claspin wild-type full-length (human, UniProt Q9HAW4 1-1339); test: EMSA; 0.5 and 1.0 pmol protein, 20 fmol DNA; much lower affinity than C-terminal deletions; 10 mM Tris-HCl pH 7.5, 40 ug/ml BSA, 1 mM DTT, EDTA (50 mM as printed for EMSA; 0.5 mM for filter binding), 20 mM K-glutamate, 8% glycerol, 30 C, 1 h
Claspin wild-type full-length, sequence (Q9HAW4 whole entry): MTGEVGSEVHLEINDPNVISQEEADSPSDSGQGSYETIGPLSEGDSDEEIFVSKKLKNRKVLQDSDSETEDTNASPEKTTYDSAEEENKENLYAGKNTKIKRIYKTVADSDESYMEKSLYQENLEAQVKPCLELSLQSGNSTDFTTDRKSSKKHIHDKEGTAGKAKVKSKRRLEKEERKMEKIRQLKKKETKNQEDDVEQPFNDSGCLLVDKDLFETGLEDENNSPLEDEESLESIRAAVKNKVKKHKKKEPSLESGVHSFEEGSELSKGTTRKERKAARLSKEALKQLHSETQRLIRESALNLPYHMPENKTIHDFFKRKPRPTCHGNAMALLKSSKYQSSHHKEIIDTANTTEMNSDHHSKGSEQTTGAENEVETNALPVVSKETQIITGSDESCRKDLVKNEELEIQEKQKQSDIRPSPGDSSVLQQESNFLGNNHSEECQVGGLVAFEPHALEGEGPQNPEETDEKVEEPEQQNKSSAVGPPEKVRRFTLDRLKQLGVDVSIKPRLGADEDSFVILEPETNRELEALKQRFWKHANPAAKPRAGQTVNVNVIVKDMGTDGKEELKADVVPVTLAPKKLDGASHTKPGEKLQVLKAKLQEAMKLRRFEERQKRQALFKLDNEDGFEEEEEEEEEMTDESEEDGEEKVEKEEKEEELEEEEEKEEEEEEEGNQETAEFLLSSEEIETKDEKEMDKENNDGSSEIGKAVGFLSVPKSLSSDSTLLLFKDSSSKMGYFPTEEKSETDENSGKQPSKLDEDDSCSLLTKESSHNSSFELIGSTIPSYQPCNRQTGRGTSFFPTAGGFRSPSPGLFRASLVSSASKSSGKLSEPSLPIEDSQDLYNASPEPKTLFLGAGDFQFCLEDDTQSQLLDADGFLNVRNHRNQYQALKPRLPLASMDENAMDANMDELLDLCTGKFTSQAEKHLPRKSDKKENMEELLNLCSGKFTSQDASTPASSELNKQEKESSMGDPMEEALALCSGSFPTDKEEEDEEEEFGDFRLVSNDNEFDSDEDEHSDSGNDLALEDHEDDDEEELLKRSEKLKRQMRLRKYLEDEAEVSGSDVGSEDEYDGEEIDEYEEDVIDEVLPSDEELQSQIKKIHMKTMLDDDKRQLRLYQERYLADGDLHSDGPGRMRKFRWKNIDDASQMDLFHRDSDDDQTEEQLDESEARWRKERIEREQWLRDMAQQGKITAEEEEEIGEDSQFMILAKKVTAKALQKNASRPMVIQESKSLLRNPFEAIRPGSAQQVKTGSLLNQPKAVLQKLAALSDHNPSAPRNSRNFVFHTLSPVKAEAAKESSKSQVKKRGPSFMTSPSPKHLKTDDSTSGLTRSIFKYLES

Claspin Cdel1 = Claspin Cdel1 (human, UniProt Q9HAW4 1-985+=GS+1210-1339, internal_change); test: EMSA; higher affinity than full-length; 10 mM Tris-HCl pH 7.5, 40 ug/ml BSA, 1 mM DTT, EDTA (50 mM as printed for EMSA; 0.5 mM for filter binding), 20 mM K-glutamate, 8% glycerol, 30 C, 1 h
Claspin Cdel1, sequence (Q9HAW4 other isoform, or with tags, fused parts or gaps): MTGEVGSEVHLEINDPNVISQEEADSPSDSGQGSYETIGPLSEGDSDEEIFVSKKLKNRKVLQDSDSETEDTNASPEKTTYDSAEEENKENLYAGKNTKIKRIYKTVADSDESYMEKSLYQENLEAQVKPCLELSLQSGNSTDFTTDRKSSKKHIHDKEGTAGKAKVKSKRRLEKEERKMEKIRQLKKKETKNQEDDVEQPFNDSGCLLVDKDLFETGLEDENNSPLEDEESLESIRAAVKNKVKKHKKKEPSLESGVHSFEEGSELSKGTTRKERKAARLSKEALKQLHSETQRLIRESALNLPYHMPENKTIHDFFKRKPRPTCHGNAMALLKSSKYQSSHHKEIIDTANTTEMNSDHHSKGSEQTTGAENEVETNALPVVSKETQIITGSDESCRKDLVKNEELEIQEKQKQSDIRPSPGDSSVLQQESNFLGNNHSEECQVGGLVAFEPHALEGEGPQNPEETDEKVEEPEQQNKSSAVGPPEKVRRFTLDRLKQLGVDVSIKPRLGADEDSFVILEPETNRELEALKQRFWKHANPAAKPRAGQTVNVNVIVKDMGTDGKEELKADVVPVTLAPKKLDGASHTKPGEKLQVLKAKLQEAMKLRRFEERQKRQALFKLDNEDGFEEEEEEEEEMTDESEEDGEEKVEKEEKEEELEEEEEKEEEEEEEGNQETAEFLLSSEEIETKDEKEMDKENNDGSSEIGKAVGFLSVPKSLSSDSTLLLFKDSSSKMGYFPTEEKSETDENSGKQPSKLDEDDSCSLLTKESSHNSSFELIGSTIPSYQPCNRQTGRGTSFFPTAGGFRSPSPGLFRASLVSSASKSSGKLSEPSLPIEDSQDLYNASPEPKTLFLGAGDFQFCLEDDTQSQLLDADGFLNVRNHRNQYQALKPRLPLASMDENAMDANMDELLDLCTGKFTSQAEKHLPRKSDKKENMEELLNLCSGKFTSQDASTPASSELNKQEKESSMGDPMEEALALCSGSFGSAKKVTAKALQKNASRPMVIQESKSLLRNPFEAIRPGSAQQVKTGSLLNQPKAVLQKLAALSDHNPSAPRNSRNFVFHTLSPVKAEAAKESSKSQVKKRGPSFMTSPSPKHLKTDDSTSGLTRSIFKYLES

Claspin Cdel2 = Claspin Cdel2 (human, UniProt Q9HAW4 1-1339, del1101-1209); test: EMSA; higher binding than full-length; 10 mM Tris-HCl pH 7.5, 40 ug/ml BSA, 1 mM DTT, EDTA (50 mM as printed for EMSA; 0.5 mM for filter binding), 20 mM K-glutamate, 8% glycerol, 30 C, 1 h
Claspin Cdel2, sequence (Q9HAW4 other isoform, or with tags, fused parts or gaps del1101-1209): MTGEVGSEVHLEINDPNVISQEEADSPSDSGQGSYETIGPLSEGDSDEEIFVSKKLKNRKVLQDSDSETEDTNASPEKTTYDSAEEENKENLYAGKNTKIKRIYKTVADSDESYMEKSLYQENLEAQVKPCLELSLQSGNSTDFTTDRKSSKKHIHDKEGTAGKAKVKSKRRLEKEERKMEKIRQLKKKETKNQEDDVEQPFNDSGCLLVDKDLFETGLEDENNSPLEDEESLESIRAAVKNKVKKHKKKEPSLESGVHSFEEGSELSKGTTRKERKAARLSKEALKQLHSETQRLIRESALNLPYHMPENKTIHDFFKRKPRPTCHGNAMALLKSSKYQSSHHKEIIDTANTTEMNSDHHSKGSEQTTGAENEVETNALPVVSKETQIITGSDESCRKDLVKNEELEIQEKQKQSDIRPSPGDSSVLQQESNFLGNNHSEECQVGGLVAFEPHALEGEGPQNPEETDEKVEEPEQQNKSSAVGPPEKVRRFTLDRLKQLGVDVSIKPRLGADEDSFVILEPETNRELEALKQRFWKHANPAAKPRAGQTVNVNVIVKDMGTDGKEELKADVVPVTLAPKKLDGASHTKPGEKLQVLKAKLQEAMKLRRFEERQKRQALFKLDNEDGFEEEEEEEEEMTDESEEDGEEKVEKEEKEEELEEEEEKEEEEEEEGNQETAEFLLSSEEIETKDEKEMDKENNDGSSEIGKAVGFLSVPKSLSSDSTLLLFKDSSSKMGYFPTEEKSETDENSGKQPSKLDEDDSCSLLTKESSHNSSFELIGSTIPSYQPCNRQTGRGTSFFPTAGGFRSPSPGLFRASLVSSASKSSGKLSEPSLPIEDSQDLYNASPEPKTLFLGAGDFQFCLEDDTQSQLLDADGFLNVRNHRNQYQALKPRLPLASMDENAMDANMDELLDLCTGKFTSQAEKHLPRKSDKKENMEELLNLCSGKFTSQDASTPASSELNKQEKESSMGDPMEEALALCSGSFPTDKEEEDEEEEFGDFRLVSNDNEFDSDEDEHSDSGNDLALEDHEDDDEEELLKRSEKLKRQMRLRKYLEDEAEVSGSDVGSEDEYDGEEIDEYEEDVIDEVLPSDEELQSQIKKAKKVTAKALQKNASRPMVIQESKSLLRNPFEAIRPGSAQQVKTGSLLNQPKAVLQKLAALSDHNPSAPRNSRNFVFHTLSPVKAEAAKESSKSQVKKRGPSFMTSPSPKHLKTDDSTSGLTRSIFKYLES

Measured: binding result

Claspin #25 (N-terminal polypeptide), sequence (Q9HAW4 1-896): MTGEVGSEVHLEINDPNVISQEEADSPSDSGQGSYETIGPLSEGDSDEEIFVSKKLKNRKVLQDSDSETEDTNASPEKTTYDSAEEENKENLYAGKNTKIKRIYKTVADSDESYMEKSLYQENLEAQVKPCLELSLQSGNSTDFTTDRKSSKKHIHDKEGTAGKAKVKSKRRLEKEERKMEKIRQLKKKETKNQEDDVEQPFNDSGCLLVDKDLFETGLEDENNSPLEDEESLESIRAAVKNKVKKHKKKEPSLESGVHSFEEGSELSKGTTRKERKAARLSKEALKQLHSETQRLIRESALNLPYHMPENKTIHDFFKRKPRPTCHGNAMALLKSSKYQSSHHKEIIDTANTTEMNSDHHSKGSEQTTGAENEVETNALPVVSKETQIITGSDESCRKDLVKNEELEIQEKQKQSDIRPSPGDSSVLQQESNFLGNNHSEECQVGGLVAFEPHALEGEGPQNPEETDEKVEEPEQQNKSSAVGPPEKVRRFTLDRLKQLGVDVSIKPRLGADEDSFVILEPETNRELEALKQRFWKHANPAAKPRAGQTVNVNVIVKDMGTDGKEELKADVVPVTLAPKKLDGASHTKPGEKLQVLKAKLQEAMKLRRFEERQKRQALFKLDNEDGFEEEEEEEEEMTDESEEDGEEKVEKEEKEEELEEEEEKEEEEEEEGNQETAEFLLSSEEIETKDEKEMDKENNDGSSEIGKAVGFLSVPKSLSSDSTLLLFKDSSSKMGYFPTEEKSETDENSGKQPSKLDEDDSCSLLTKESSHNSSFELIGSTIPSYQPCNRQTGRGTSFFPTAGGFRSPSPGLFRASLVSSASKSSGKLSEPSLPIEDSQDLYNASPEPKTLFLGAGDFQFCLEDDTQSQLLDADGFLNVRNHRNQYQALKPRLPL

B1: Y-fork DNA (mixed)
DNA 1: AACGTCGTGACTGGGCACTTGATCGGCCAACCTTTTTTTTTTTTTTTTTTTTTTTTTTTTTTTT
DNA 2: TTTTTTTTTTTTTTTTTTTTTTTTTTTTTTTTGGTTGGCCGATCAAGTGCCCAGTCACGACGTT
binds: all assays above
